Laboratory results from PMC9376891 (Nature Communications, 2022).

B1: SARS-CoV-2 ORF6 C3 (peptide)
peptide: YSQLDEEQPMEID
notes: source: synthetic peptide
B2: SARS-CoV-2 ORF6 C4 (peptide)
peptide: DEEQPMEID
notes: source: synthetic peptide
B3: SARS-CoV-2 ORF6 C1 (peptide)
peptide: SLTENKYSQLDEEQPMEID
notes: source: synthetic peptide
B4: SARS-CoV-2 ORF6 C2 (peptide)
peptide: ENKYSQLDEEQPMEID
notes: source: synthetic peptide
B5: MHV-68 ORF10 CTT peptide (peptide)
chain: RAITDGGESPMEWQTL
B6: SARS-CoV-2 ORF6 C3 peptide (peptide)
peptide: YSQLDEEQPMEID
notes: source: synthetic peptide
B7: SARS-CoV-2 ORF6 C3 lacking the last three residues 59-EID-61 but retaining M58 (peptide)
peptide: YSQLDEEQPM
notes: source: synthetic peptide
B8: SARS-CoV ORF6 C3 -YP (peptide)
peptide: YSELDDEEPMELD
B9: SARS-CoV ORF6 C3 peptide (peptide)
peptide: YSELDDEEPMELDYP
B10: SARS-CoV ORF6 C3 (peptide)
peptide: YSELDDEEPMELDYP
B11: VSV-M-NTE (peptide)
peptide: DEMDTHDPNQLRY
B12: SARS-CoV ORF6-YP (peptide)
peptide: YSELDDEEPMELD
B13: SARS-CoV-2- ORF6-EID (peptide)
peptide: YSQLDEEQPM
notes: source: synthetic peptide
B14: Rae1(31-368)-Nup98(157-213) heterodimer (complex)
chain 1: DIEVTSSPDDSIGCLSFSPPTLPGNFLIAGSWANDVRCWEVQDSGQTIPKAQQMHTGPVLDVCWSDDGSKVFTASCDKTAKMWDLSSNQAIQIAQHDAPVKTIHWIKAPNYSCVMTGSWDKTLKFWDTRSSNPMMVLQLPERCYCADVIYPMAVVATAERGLIVYQLENQPSEFRRIESPLKHQHRCVAIFKDKQNKPTGFALGSIEGRVAIHYINPPNPAKDNFTFKCHRSNGTNTSAPQDIYAVNGIAFHPVHGTLATVGSDGRFSFWDKDARTKLKTSEQLDQPISACCFNHNGNIFAYASSYDWSKGHEFYNPQKKNYIFLRNAAEELKPRNKK
chain 2: not shown
notes: also called Rae1-Nup98; Rae1-Nup98 complex

Target: B14
Assay: ITC
Settings: both partners purified
Target sequence in this assay (P52948 157-213, chain 2 of 2, one chain of several): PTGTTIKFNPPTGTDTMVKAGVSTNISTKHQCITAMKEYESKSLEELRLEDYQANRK

Binder	Ka [M⁻¹]	stoichiometry N	Kd [nM]
B1	4.12e+06	0.9	–
B2	2.25e+06	0.82	440
B3	2.62e+06	1.06	380
B4	3.58e+06	1.17	270

Target: T1, Rae1(31-368)-Nup98(157-213) heterodimer (human, UniProt P78406 31-368; P52948 157-213)
T1 construct: also called Rae1-Nup98; Rae1-Nup98 complex
Assay: ITC
Settings: both partners purified
T1 sequence (P52948 157-213, chain 2 of 2, one chain of several): as above

Binder	Kd [nM]
B5	5710
B6	240
B7	87700
B8	110
B9	370

Target: B14
Assay: ITC
Settings: both partners purified
Remark: another data set of the same source
Target sequence in this assay (P52948 157-213, chain 2 of 2, one chain of several): as above

Binder	Ka [M⁻¹]	stoichiometry N
B10	2.69e+06	0.63
B11	8550	0.304
B12	8.89e+06	0.62
B13	11400	1.01

Target: T2, MHV68-ORF10-CTT (murine gammaherpesvirus 68)
T2 construct: source: synthetic peptide
Assay: ITC
Settings: both partners purified

T2 sequence (P52948 157-213): as the sequence (P52948 157-213, chain 2 of 2, one chain of several) above

Binder	Ka [M⁻¹]
B14	175000
